Data from PMC3310290.

Biological target: fibrin (Homo sapiens) (UniProt P02671)
Experiment: ELISA

Sequence of fibronectin, P02751 (P02751 32-2477): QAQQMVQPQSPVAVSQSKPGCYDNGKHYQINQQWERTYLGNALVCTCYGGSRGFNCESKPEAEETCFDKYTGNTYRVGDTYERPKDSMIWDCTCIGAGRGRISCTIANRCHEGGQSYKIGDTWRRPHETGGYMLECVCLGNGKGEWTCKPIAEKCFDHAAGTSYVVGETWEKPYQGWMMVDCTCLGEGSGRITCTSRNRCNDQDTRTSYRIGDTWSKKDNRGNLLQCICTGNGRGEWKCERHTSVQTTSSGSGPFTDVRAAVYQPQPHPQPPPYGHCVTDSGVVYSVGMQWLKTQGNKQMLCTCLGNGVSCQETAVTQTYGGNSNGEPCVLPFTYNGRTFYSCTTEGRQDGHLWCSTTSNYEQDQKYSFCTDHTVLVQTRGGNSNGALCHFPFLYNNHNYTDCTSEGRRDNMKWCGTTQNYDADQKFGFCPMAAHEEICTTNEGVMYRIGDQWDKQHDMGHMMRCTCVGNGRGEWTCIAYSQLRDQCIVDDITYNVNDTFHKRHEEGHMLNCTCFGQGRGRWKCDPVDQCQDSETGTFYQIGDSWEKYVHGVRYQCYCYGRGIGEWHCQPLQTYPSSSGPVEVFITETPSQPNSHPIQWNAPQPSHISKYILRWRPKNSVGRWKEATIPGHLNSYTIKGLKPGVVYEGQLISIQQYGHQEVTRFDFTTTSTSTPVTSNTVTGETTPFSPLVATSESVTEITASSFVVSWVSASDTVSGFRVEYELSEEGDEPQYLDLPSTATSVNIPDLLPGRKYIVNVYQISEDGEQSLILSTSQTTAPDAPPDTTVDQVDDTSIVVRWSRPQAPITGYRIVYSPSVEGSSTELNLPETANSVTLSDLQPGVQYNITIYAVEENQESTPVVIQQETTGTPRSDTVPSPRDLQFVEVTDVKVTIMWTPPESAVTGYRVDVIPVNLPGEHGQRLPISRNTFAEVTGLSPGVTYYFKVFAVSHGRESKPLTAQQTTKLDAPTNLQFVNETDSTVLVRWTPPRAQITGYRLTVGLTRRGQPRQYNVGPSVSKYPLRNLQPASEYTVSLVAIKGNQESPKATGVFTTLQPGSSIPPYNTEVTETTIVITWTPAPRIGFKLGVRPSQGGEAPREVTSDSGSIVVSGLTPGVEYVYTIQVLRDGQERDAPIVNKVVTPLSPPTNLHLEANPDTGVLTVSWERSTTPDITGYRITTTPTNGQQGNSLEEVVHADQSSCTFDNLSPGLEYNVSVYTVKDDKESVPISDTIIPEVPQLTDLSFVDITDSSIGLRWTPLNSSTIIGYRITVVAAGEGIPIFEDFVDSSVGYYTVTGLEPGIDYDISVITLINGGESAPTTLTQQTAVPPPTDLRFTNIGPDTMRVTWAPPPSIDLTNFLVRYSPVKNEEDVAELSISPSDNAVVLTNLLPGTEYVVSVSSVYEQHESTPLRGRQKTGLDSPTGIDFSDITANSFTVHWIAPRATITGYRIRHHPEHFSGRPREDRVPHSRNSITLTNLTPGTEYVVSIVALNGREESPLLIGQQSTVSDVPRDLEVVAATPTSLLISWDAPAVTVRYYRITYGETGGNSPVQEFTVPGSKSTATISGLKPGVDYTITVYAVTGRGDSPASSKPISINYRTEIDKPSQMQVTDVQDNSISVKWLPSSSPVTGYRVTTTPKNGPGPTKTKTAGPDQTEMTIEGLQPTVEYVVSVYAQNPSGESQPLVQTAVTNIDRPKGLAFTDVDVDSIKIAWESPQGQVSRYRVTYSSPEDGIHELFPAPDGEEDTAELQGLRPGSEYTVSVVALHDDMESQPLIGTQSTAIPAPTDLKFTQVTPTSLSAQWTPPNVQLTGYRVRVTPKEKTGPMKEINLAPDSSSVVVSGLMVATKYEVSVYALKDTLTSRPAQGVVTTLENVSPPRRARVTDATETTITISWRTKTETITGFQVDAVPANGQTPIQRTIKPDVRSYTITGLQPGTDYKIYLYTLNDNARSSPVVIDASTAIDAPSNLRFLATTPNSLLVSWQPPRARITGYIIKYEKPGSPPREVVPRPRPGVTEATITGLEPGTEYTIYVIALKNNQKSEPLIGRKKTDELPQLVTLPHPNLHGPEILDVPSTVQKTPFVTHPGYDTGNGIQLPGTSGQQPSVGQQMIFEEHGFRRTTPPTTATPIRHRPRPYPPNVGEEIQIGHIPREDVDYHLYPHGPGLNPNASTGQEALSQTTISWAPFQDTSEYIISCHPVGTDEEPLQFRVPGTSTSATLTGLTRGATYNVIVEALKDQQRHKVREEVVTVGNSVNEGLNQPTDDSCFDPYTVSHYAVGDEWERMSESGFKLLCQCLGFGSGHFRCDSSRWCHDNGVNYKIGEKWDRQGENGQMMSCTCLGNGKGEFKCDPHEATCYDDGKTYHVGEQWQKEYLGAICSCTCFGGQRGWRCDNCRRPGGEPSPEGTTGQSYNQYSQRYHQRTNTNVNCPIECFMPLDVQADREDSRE

- IC50: 4.9 nM
Substance: fibronectin, P02751
